The values below are quoted from earlier work in PMC3472557.

Data set [1] deals with ASPP2 (Homo sapiens) (UniProt Q13625). Kind of data set: BIAcore SPR.
For data set [2] the target is unchanged. In words: solid-phase ELISA. (In general: In an ELISA, binding on a coated surface is turned into a signal by an enzyme label.)

Chain of ASPP2 (Homo sapiens) (Q13625 whole entry): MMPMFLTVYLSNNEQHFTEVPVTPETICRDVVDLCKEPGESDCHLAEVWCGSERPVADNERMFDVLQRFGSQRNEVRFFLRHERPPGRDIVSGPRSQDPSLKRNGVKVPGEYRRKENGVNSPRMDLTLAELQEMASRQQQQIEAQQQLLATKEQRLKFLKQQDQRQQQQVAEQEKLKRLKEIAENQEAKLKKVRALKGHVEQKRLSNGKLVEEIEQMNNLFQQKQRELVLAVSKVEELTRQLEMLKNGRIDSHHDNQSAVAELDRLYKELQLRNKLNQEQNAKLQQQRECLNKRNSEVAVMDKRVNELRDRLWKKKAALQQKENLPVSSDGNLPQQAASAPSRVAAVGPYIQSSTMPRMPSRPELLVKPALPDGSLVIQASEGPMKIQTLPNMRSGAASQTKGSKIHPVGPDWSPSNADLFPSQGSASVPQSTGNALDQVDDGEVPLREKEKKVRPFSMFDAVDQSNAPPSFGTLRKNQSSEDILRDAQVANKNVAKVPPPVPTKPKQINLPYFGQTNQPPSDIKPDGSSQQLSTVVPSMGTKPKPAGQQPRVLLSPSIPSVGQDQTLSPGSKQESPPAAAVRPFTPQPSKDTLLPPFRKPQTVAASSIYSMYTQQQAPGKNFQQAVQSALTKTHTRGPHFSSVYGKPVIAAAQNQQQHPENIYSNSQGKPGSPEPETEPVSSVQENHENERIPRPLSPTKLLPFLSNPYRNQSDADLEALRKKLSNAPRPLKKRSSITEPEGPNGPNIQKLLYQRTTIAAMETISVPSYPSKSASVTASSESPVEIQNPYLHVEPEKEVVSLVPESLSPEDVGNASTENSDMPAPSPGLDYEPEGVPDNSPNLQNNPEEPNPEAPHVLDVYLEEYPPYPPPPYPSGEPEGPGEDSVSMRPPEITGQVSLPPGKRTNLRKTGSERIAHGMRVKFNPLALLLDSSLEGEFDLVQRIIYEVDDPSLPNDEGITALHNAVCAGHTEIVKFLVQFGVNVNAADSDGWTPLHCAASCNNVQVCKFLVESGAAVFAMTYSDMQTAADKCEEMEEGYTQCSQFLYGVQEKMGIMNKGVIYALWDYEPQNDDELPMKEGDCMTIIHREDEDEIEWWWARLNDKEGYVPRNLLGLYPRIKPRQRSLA

In the case of p53 (from UniProt P04637), the Kd in data set [1] was 30 nM; in data set [2], 23 nM.

The Kd is a measure of binding affinity in units of concentration.
